For two variants, response results are on record in article PMC3042988, “The activation mechanism of Irga6, an interferon-inducible GTPase contributing to mouse resistance against Toxoplasma gondii” (BMC Biology, 2011).

B1: Irga6 (IIGP1), wild type, recombinant, GST cleaved off [mouse] / itself (parent)
chain: MGQLFSSPKSDENNDLPSSFTGYFKKFNTGRKIISQEILNLIELRMRKGNIQLTNSAISDALKEIDSSVLNVAVTGETGSGKSSFINTLRGIGNEEEGAAKTGVVEVTMERHPYKHPNIPNVVFWDLPGIGSTNFPPNTYLEKMKFYEYDFFIIISATRFKKNDIDIAKAISMMKKEFYFVRTKVDSDITNEADGKPQTFDKEKVLQDIRLNCVNTFRENGIAEPPIFLLSNKNVCHYDFPVLMDKLISDLPIYKRHNFMVSLPNITDSVIEKKRQFLKQRIWLEGFAADLVNIIPSLTFLLDSDLETLKKSMKFYRTVFGVDETSLQRLARDWEIEVDQVEAMIKSPAVFKPTDEETIQERLSRYIQEFCLANGYLLPKNSFLKEIFYLKYYFLDMVTEDAKTLLKEICL

The variants in one test derive from B1. Briefly: light scattering (homo-oligomerisation). The settings on record: with itself; 80 µM Irga6; 10 mM GTP; 37°C; peak of the time course, at about 15 min; read off a plot.
As to MGQLFSSPKSDENNDLPSSFTGYFKKFNTGRKIISQEILNLIELRMRKGNIQLTNSAISDALKKIDSSVLNVAVTGETGSGKSSFINTLRGIGNEEEGAAKTGVVEVTMERHPYKHPNIPNVVFWDLPGIGSTNFPPNTYLEKMKFYEYDFFIIISATRFKKNDIDIAKAISMMKKEFYFVRTKVDSDITNEADGKPQTFDKEKVLQDIRLNCVNTFRENGIAEPPIFLLSNKNVCHYDFPVLMDKLISDLPIYKRHNFMVSLPNITDSVIEKKRQFLKQRIWLEGFAADLVNIIPSLTFLLDSDLETLKKSMKFYRTVFGVDETSLQRLARDWEIEVDQVEAMIKSPAVFKPTDEETIQERLSRYIQEFCLANGYLLPKNSFLKEIFYLKYYFLDMVTEDAKTLLKEICL [chain 1 E64K], the response was found to be 8.2 a. u.

Still in this test, the particulars now being: with itself; 80 µM Irga6; 10 mM GTP; 37°C; peak of the time course, at about 10 min; read off a plot.
In the case of MGQLFSSPKSDENNDLPSSFTGYFKKFNTGRKIISQEILNLIELRMRKGNIQLTNSAISDALKEIDSSVLNVAVTGETGSGKSSFINTLRGIGNEERGAAKTGVVEVTMERHPYKHPNIPNVVFWDLPGIGSTNFPPNTYLEKMKFYEYDFFIIISATRFKKNDIDIAKAISMMKKEFYFVRTKVDSDITNEADGKPQTFDKEKVLQDIRLNCVNTFRENGIAEPPIFLLSNKNVCHYDFPVLMDKLISDLPIYKRHNFMVSLPNITDSVIEKKRQFLKQRIWLEGFAADLVNIIPSLTFLLDSDLETLKKSMKFYRTVFGVDETSLQRLARDWEIEVDQVEAMIKSPAVFKPTDEETIQERLSRYIQEFCLANGYLLPKNSFLKEIFYLKYYFLDMVTEDAKTLLKEICL [chain 1 E97R], the response was 9 a. u.
